# Experimental data: patent publication US20240398942A1 (CHIA TAI TIANQING PHARMACEUTICAL GROUP, published 2024)
# Substitutions are numbered along the chain they refer to.
# B1: BM1 (dacetuzumab) (antibody, human IgG1, kappa, V domains shown)
# VH: EVQLVESGGGLVQPGGSLRLSCAASGYSFTGYYIHWVRQAPGKGLEWVARVIPNAGGTSYNQKFKGRFTLSVDNSKNTAYLQMNSLRAEDTAVYYCAREGIYWWGQGTLVTVSS
# VL: DIQMTQSPSSLSASVGDRVTITCRSSQSLVHSNGNTFLHWYQQKPGKAPKLLIYTVSNRFSGVPSRFSGSGSGTDFTLTISSLQPEDFATYFCSQTTHVPWTFGQGTKVEIKR
# notes: Benchmark antibody, prepared in-house; also called CD40-BM1; benchmark
# B2: chimeric antibody C1H1 (antibody, human IgG1, kappa, V domains shown)
# VH: EVKLVESGGGLVKPGASLKLSCAASGFTFSNYGISWVRQTSDKRLEWVASISSGGDNTYYPDNVKGRFTISRENAKNTLYLQMSSLKSEDTALYYCARAGEKAMDYWGQGTSVTVSS
# VL: DIVLTQSPVTLSVTPGDSVSLSCRASQTINNNLHWYQQKSHESPRLLIKYASQSISGIPSRFSGSGSGTDFTLSINSVETEDFGIYFCQQFSSWPLTFGAGTKLELKR
# notes: also called Chimeric C1H1
# B3: BM2 (selicrelumab) (antibody, human IgG2, kappa, V domains shown)
# VH: not shown
# VL: DIQMTQSPSSVSASVGDRVTITCRASQGIYSWLAWYQQKPGKAPNLLIYTASTLQSGVPSRFSGSGSGTDFTLTISSLQPEDFATYYCQQANIFPLTFGGGTKVEIKR
# notes: Benchmark antibody, prepared in-house; also called CD40-BM2; benchmark
# B4: humanized antibody huC1H1-V1 (antibody, human IgG2, kappa, V domains shown)
# VH: EVQLVESGGGLVKPGGSLRLSCAASGFTFSNYGISWVRQAPGKGLEWVASISSGGDNTYYPDNVKGRFTISRDNAKNSLYLQMNSLRAEDTAVYYCARAGEKAMDYWGQGTLVTVSS
# VL: EIVLTQSPATLSLSPGERATLSCRASQTINNNLHWYQQKPGQAPRLLIKYASQSISGIPARFSGSGSGTDFTLTISSLEPEDFAVYFCQQFSSWPLTFGGGTKVEIKR
# notes: Human IgG2 / kappa
# B5: humanized antibody huC1H1-V2 (antibody, human IgG2, kappa, V domains shown)
# VH: B4 VH with A49S
# VL: B4 VL
# notes: Human IgG2 / kappa
# B6: mouse anti-CD40 monoclonal antibody C1H1 (antibody, V domains shown)
# VH: B2 VH
# VL: DIVLTQSPVTLSVTPGDSVSLSCRASQTINNNLHWYQQKSHESPRLLIKYASQSISGIPSRFSGSGSGTDFTLSINSVETEDFGIYFCQQFSSWPLTFGAGTKLELK
# notes: Parent mouse antibody from a hybridoma; the mouse constant regions are not; also called Mouse C1H1
# Target: T1, recombinant human CD40-his (Acro biosystems, Cat. No. CD0-H5228) (human, UniProt P25942 21-193)
# T1 construct: Bought protein; also called human CD40-his protein; not shown: His tag
# Experiment: SPR (Biacore T200), antibody captured on anti-human IgG chip, CD40-his as analyte, 1:1 fit
# Excerpt: (§1) Briefly, a goat anti-human IgG (GE Healthcare, Cat. No. BR100839, human antibody capture kit) was covalently linked to a CM5 chip (GE Healthcare, Cat. No. BR100530, carboxymethylated dextran-coated chip) via the primary amine group using a standard amine coupling kit supplied by Biacore (GE Healthcare, Pittsburgh, PA, USA). Unreacted portions on the biosensor surface were blocked with ethanolamine. Then, the anti-CD40 antibody of the present application and two benchmark antibodies (BM1 (dacetuzumab, Genentech Inc., also referred to CD40-BM1, prepared in-house; the heavy and light chain amino acid sequences are set forth in SEQ ID NOs: 40 and 41, respectively) and BM2 (selicrelumab, Abgenix Inc., also referred to CD40-BM2, prepared in-house; the heavy and light chain amino acid sequences are set forth in SEQ ID NOS: 42 and 43, respectively)) at a concentration of 66.67 nM were directed through the chip at a flow rate of 10 μL/min. Then, serially diluted recombinant human CD40-his (Acro biosystems, Cat. No. CD0-H5228, serially 2-fold diluted from 80 nM in HBS-EP⁺ buffer (supplied by Biacore)) or cynomolgus monkey CD40-his protein (Acro biosystems, Cat. No. CD0-C52H6, serially 2-fold diluted from 80 nM in HBS-EP⁺ buffer (supplied by Biacore)) was directed through the chip at a flow rate of 30 μL/min. The antigen-antibody binding kinetics was tracked for 2 min and the dissociation kinetics was tracked for 10 min. The association and dissociation curves were fitted to a 1:1 Langmuir binding model using BIAcore evaluation software. KD, Kₐ, and Kd values were determined.
Binder,Kd [nM],koff [s⁻¹],kon [M⁻¹ s⁻¹]
B1,8.87,0.00656,739000
B2,0.861,0.00157,1.82e+06

# Target: T2, cynomolgus monkey CD40-his protein (Acro biosystems, Cat. No. CD0-C52H6) (cynomolgus monkey, UniProt G7PG38 21-193)
# T2 construct: Bought protein; not shown: His tag
# Experiment: as above
# Excerpt: as §1
Binder,Kd [nM],koff [s⁻¹],kon [M⁻¹ s⁻¹]
B1,9.68,0.0074,764000
B3,8.73,0.00151,173000
B2,0.846,0.00215,2.54e+06
B4,1.11,0.00237,2.14e+06
B5,1.07,0.00274,2.56e+06

# Target: T1, recombinant human CD40-his (Acro …)
# Experiment: as above
# Remark: another data set of the same source
# Excerpt: as §1
Binder,Kd [nM],koff [s⁻¹],kon [M⁻¹ s⁻¹]
B1,9.42,0.00756,803000
B3,7.84,0.00162,206000
B2,0.884,0.00222,2.51e+06
B4,1.1,0.00248,2.25e+06
B5,1.17,0.0027,2.31e+06

# Target: T3, human CD40-Fc protein (human, biotinylated (sites not given) in the capture ELISA and the benchmark blocking ELISA; not biotinylated in the ligand blocking ELISA)
# T3 construct: also called biotinylated human CD40-Fc
# Experiment: capture ELISA: antibody captured on coated goat anti-human IgG F(ab')2, biotinylated human CD40-Fc 1.15 nM, streptavidin-HRP, OD(450-630)
# Protocol: The plate was washed once with a washing buffer (PBS+0.05% v/v of Tween-20, PBST) and then blocked with 200 μL/well blocking buffer (PBST containing 5% w/v of skim milk) for 2 h at 37° C. The plate was washed 4 times, and the anti-CD40 antibody of the present application, BM1, BM2, and a negative control hIgG (human immunoglobulin for intravenous injection (pH 4), Hualan Biological Engineering Inc.) serially 5-fold diluted from 66.7 nM in a PBST containing 2.5% w/v of skim milk was added at 100 μL per well. The plate was incubated for 40 min at 37° C. and washed 4 times. A biotinylated human CD40-Fc protein (amino acid residues 21-193 of SEQ ID NO: 30 linked to the N terminus of amino acid residues 99-330 of SEQ ID NO: 28, dissolved in PBST containing 2.5% w/v of skim milk at a concentration of 1.15 nM) was added at 100 μL/well to a 96-well plate coated with the anti-CD40 antibody. The plate was incubated at 37° C. for 40 min and washed 4 times. An HRP-labeled streptavidin (diluted at 1:10000 in PBST, Jackson Immuno Research, Cat. No. 016-030-084) was added at 100 μL/well, and the plate was incubated at 37° C. for another 40 min. After the last wash, 100 μL/well of ELISA substrate TMB (Innoreagents, Cat. No. TMB-S-002) was added and the plate was incubated at room temperature. After 3-10 min, the reaction was stopped by adding 1 M H₂SO₄ at 50 µL/well, and the absorbance of each well was read on a microplate reader using the dual wavelength mode (TMB detection wavelength: 450 nm, reference wavelength: 630 nm). Curves of OD(450-630) values vs. antibody concentration were plotted. Data were analyzed using Graphpad Prism software, and EC₅₀ values were obtained.
row,Binder,EC50 [nM]
1,B6,0.203
2,B1,0.59
3,B3,1.34
4,B2,0.343

# Target: T3, human CD40-Fc protein
# Experiment: competitive ELISA: BM2 (selicrelumab) coated as competitor, antibody titrated and pre-mixed with biotinylated human CD40-Fc 0.23 nM, streptavidin-HRP, OD(450-630)
# Protocol: The ability of the anti-CD40 antibody of the present application to block the binding of the benchmark to human CD40 was determined by competitive ELISA. Briefly, BM2 antibody was immobilized on a 96-well micro plates at 1 μg/mL in PBS, 100 µL/well, and incubated overnight at 4° C. The next day, the plate was washed once with a washing buffer before a blocking buffer (PBST containing 5% w/v of skim milk) was added. The plate was then incubated at 37° C. for 2 h for blocking. During the blocking of the 96-well plate, the anti-CD40 antibody of the present application or the benchmark was serially 5-fold diluted from 66.7 nM with a biotinylated human CD40-Fc protein (amino acid residues 21-193 of SEQ ID NO: 30 linked to the N terminus of amino acid residues 99-330 of SEQ ID NO: 28, dissolved in PBST containing 2.5% w/v of skim milk at a concentration of 0.23 nM) and then incubated at room temperature for 40 min. After the plate was washed 4 times, the antibody/biotinylated human CD40-Fc mixture was added at 100 μL/well to the plate coated with BM2. The plate was incubated at 37° C. for 40 min and again washed 4 times with the washing buffer. An HRP-labeled streptavidin was added at 100 μL/well, and the plate was incubated at 37° C. for 40 min to detect biotinylated human CD40-Fc immobilized on the plate. Again, the plate was washed 4 times with the washing buffer. Finally, TMB was added and the reaction was stopped by adding 1 M H₂SO₄. The absorbance was read on a microplate reader using the dual wavelength mode (TMB detection wavelength: 450 nm, reference wavelength: 630 nm). Curves of OD(450-630) values vs. antibody concentration were plotted. Data were analyzed using Graphpad Prism software, and IC₅₀ values were obtained.
row,Binder,IC50 [nM]
1,B6,0.125
2,B1,0.0461
3,B2,0.16
4,B4,0.513
5,B5,0.318
